The values that follow come from paper PMC4369446 (2015).

What all share (assay): cytokine release
Assay [1] concerns the target T1, cMOAT2 peptide on HLA-A*02:01 (human).
T1 peptide: NVADIGLHDV

The target in assay [2] is T2, P47 peptide on HLA-A*02:01 (human).
T2 peptide: RISDIRLFIV

Assay [3] has as its target T3, Hypothetical 20 kD protein peptide on HLA-A*02:01 (human).
T3 peptide: RISAIILHPN

The target in assay [4] is T4, KIAA0935 peptide on HLA-A*02:01 (human).
T4 peptide: RVTDEAGHPV

In assay [5] the target is T5, Monocarboxylate transporter 8 peptide on HLA-A*02:01 (human).
T5 peptide: AVAFIGLHTS

The target of assay [6] is T6, ABC transporter MOAT-C peptide on HLA-A*02:01 (human).
T6 peptide: RISDIGLADL

Assay [7] addresses T7, KIAA0735 peptide on HLA-A*02:01 (human).
T7 peptide: LISGIGIGGA

In assay [8] the target is T8, SLC1A1 peptide on HLA-A*02:01 (human).
T8 peptide: VLTGLAIHSI

For assay [9], the target named is T9, Endothelin-1 receptor peptide on HLA-A*02:01 (human).
T9 peptide: RVQGIGIPLV

The target of assay [10] is T10, IGHG1 peptide on HLA-A*02:01 (human).
T10 peptide: RLSELAIFGV

The target in assay [11] is T11, Prostaglandin transporter peptide on HLA-A*02:01 (human).
T11 peptide: LLAGIGTVPI

Assay [12] concerns the target T12, MRP3 peptide on HLA-A*02:01 (human).
T12 peptide: NVADIGFHDV

For assay [13], the target named is T13, G-protein coupled receptor RE2 peptide on HLA-A*02:01 (human).
T13 peptide: RITDLGLSPH

B1: SIG35α / TRBV27 Cl.1593 (TCR)
alpha TRAV12-2 J35 CDR3: CAVSIGFGNVL
beta TRBV27 TRBJ1-5 CDR3: CASGNNQPQHF
As for B1, the binding result in assay [1], in [2], in assay [3], in [4], in assay [5] and in assay [6] was “no recognition” throughout. Besides, the binding result is on record as “recognises” in [7]; “no recognition” in assay [8]; “no recognition” in [9]; “no recognition” in assay [10]; “recognises” in assay [11]; “no recognition” in assay [12]. In assay [13], the binding result was “recognises”.

B2: SIG35α / TRBV27 Cl.1599 (TCR)
alpha TRAV12-2 J35 CDR3: CAVSIGFGNVL
beta TRBV27 TRBJ1-1 CDR3: CASSFLGAMAEAFF
For B2, the binding result in [1], in [2], in [3], in assay [4], in assay [5] and in assay [6] was “no recognition” each time. Besides, the binding result is “recognises” in assay [7]; “no recognition” in assay [8]; “no recognition” in assay [9]; “no recognition” in [10]; “recognises” in assay [11]; “no recognition” in [12]. Also, the binding result in [13] is “recognises”.

B3: SIG35α / TRBV27 Cl.413 (TCR)
alpha TRAV12-2 J35 CDR3: CAVSIGFGNVL
beta TRBV27 TRBJ1-4 CDR3: CASSVFGGDMGEKLFF
Regarding B3, the binding result in assay [1], in assay [2], in [3], in assay [4], in assay [5] and in assay [6] was “no recognition” each time. Further, the binding result in assay [7] was “no recognition”; in [8], “no recognition”; in assay [9] it was “no recognition”; in assay [10], “no recognition”; in assay [11], “recognises”; in assay [12] it was “no recognition”. Besides, the binding result in assay [13] is given as “no recognition”.

B4: SIG35α / TRBV27 Cl.758 (TCR)
alpha TRAV12-2 J35 CDR3: CAVSIGFGNVL
beta TRBV27 TRBJ2-2 CDR3: CASSPRLAGDGELFF
Regarding B4, the binding result in [1], in [2], in assay [3], in assay [4], in assay [5] and in assay [6] was “no recognition” each time. Also, the binding result in assay [7] is listed as “no recognition”; in assay [8], “no recognition”; in assay [9] it was “no recognition”; in assay [10] it was “no recognition”; in assay [11], “recognises”; in assay [12], “no recognition”. For the same molecule, the binding result in [13] is on record as “recognises”.

B5: SIG35α / TRBV27 Cl.1606 (TCR)
alpha TRAV12-2 J35 CDR3: CAVSIGFGNVL
beta TRBV27 TRBJ2-7 CDR3: CASSLLGSYEQYF
With B5, the binding result in assay [1], in [2], in assay [3], in assay [4], in [5] and in assay [6] was “no recognition” in each case. The binding result in assay [7] was “recognises”; in [8] it was “recognises”; in [9], “no recognition”; in assay [10], “no recognition”; in assay [11] it was “recognises”; in [12], “no recognition”. For the same molecule, the binding result in assay [13] was “recognises”.

B6: SIG35α / TRBV27 Cl.1086 (TCR)
alpha TRAV12-2 J35 CDR3: CAVSIGFGNVL
beta TRBV27 TRBJ1-2 CDR3: CASSLHGPGGYTF
For B6, the binding result in assay [1], in [2], in assay [3], in assay [4], in assay [5] and in assay [6] was “no recognition” throughout. Moreover, the binding result is given as “no recognition” in [7]; “no recognition” in [8]; “no recognition” in assay [9]; “no recognition” in assay [10]; “recognises” in [11]; “no recognition” in assay [12]. Further, the binding result in [13] is “no recognition”.

B7: SIG35α / TRBV27 Cl.788 (TCR)
alpha TRAV12-2 J35 CDR3: CAVSIGFGNVL
beta TRBV27 TRBJ2-7 CDR3: CASGPSYEQYF
Consider B7, for which the binding result in assay [1], in [2], in [3], in [4], in assay [5] and in assay [6] was “no recognition” each time. The binding result in [7] is “no recognition”; in [8], “no recognition”; in [9] it was “no recognition”; in assay [10], “no recognition”; in [11], “recognises”; in [12], “no recognition”. Moreover, in assay [13], the binding result is “recognises”.

B8: SIG35α / TRBV27 Cl.523 (TCR)
alpha TRAV12-2 J35 CDR3: CAVSIGFGNVL
beta TRBV27 TRBJ2-7 CDR3: CASGSYEQYF
In the case of B8, the binding result in assay [1], in assay [2], in assay [3], in [4], in assay [5] and in [6] was “no recognition” in each case. Further, the binding result in [7] is “recognises”; in assay [8], “no recognition”; in assay [9], “no recognition”; in assay [10] it was “no recognition”; in [11], “recognises”; in assay [12], “no recognition”. The binding result in assay [13] was “recognises”.

B9: SIG35α / TRBV27 Cl.794 (TCR)
alpha TRAV12-2 J35 CDR3: CAVSIGFGNVL
beta TRBV27 TRBJ1-2 CDR3: CASSLLGDYGYTF
For the molecule B9, the binding result in [1], in [2], in assay [3], in assay [4], in assay [5] and in [6] was “no recognition” in each case. In addition, the binding result in assay [7] is “recognises”; in assay [8] it was “no recognition”; in assay [9], “no recognition”; in assay [10], “no recognition”; in assay [11], “recognises”; in assay [12] it was “no recognition”. Further, the binding result in assay [13] is “recognises”.

B10: SIG35α / TRBV27 Cl.1574 (TCR)
alpha TRAV12-2 J35 CDR3: CAVSIGFGNVL
beta TRBV27 TRBJ1-1 CDR3: CASSPWERINTEAFF
Turning to B10, the binding result in assay [1], in [2], in [3], in assay [4], in [5] and in assay [6] was “no recognition” each time. The binding result was “recognises” in assay [7]; “recognises” in assay [8]; “no recognition” in [9]; “no recognition” in [10]; “recognises” in [11]; “no recognition” in assay [12]. In addition, the binding result in assay [13] is on record as “recognises”.
